From patent US20100169995A1 (RESEARCH FOUNDATION OF STATE UNIVERSITY OF NEW YORK, published 2010)
One block for each binder: values may come before it.

B1: IQGAP2 (mouse, endogenous, liver lysate) (other, UniProt Q3UQ44 1-1575, looked up)
chain: MPHEELPSLQRPRYGSIVDDERLSAEEMDERRRQNIAYEYLCHLEEAKRWMEVCLVEELPPTTELEEGLRNGVYLAKLAKFFAPKMVSEKKIYDVEQTRYKKSGLHFRHTDNTVQWLRAMEAIGLPKIFYPETTDVYDRKNIPRMIYCIHALSLYLFKLGIAPQIQDLLGKVDFTEEEISNMRKELEKYGIQMPAFSKIGGILANELSVDEAALHAAVIAINEAIEKGVAKQTIITLRNPNAVLTCVDDSLSQEYQKELWEAKKKKEESAKLKNSCISEEERDAYEELLTQAEIQSNISTVNRMAAVDHINAVLQEGDPENTLLALKKPEAQLPAVYPFAAVMYQNELFNLQKQNTSNYLAHEELLIAVEMLSAVALLNQALESSDLVAVQNQLRSPTIGFNNLDEAHVDRYADALLSVKQEALSQGQDTLSWNEIQNCIDMINNQIQEENDRMVVLGYINEAIDAGNPLKTLDTLLLPTANIRDVDPDCAQHYQDVLFYTKSQKLGDPKNVSKVLWLDEIQQAINEANVDENRAKQWVTLVVDVNECLDRKQSDHILTALKSSPSNIHNILPECANKYYDTLVKAKESKTDNESSEGSWVTLNVQEKYNYYYNTDSKEGSWVPPELCLSKESWLTGEEIEDIVEEVTSDYIREKLWSASEDLLVRFEATTLGPALREEFEARKAFLYEQTESVVKIQAFWKGFKQRQEYLHRQQVFAGNVDSVVKIQSWFRMVTARKSYLSRLRYFEDHKNEIVKIQSLLRASKARDDYKALVGSENPPLTVIRKFVYLLDQSDLDFQEELEVARLREEVVTKIRANQQLEKDLNLMDIKIGLLVKNRITLEDVISHRKKLNKKKGGEIEILNNTDNKGIKSLSKERRKTLETYQQLFYLLQTKPSYLAKLIFQMPQNKSTKFMDTVIFTLYNYASNQREEYLLLKLFKTALEEEIKSKVDQVQDIVTGNPTVIKMVVSFNRGARGQNTLRQLLAPVVKEIIEDKALVINTNPVEVYKAWVNQLETQTGEASKLPYDVTTEQALTYPEVKNKLEASIENLRKVTDKVLGSIISSLDLLPYGLRYIAKVLKNSIREKFPDATEEELLKIVGNLLYYRYMNPAIVAPDGFDIIDMTAGGQINSNQRRNLGSVAKVLQHAASNKLFEGENEHLSSMNNYLSETYQEFRKYFQEACDVPEPEEKFNMDKYTDLVTVSKPVIYISIEEIINTHLLLLEHQDAIATEKSDLLNELLESLGEVPTVESFLGEGAVDPNDPNKENTLNQLSKTEISLSLTSKYDVKDGEAVDGRSLMIKTKKLIIDVTRNQPGSTLTEILETPATGQQELEHAKDMESRAVVDSRTPEEGKQSQAVIEDARLPLEQKKRKIQRNLRTLEQTGHVSSKNKYQDILNEIAKDIRNQRIHRKLRKAELSKLQQTLNALNKKAAFYEDQINYYDTYIKTCVDNLKRKNSRRSIKLDGKAEPKGTKRVKPVRYTAAKLHDKGVLLGIDDLQTNQFKNVMFDIIATEDMGIFDVRSKFLGVEMEKVQLNIQDLLQMQYEGVAVMKMFDKVKVNVNLLIYLLNKKFYGK

How the values were obtained:
[1] = target: IQGAP1 (mouse, endogenous, liver lysate) (mouse, UniProt Q9JKF1 2-1657); test: reciprocal co-immunoprecipitation from normal mouse hepatocyte/liver lysates, immunoblot detection
Description: (§1) To further probe the relationships between IQGAP1, IQGAP2, β-catenin, and E-cadherin, a series of immunoprecipitation experiments were conducted using whole-liver lysates from Iqgap1^{-/-}, Iqgap2^{-/-}, and wildtype mice. […] In contrast, there was no evidence for specific interaction between E-cadherin and IQGAP2 in either E-cadherin- or IQGAP2-specific immunoprecipitations. […] Using normal hepatocytes, however, neither IQGAP1- nor IQGAP2-specific pull-down assays coprecipitated the corresponding homologous protein. Transient transfections of […] (which endogenously express IQGAP1) were subsequently used as an in vitro model system to specifically address the existence of putative IQGAP1-IQGAP2 heterodimers. As evident in FIG. 15B, IQGAP1 or IQGAP2 were not pulled down by reciprocal immunoprecipitations. Thus, while IQGAP1 and IQGAP2 are normally found as components of a broader quarternary scaffolding complex in hepatocytes, there appears to be no evidence that their presence within this scaffold occurs via direct (heterodimeric) interactions.
(§2) Immunoprecipitation experiments were completed using freshly isolated murine livers essentially as described previously (Schmidt, V. A., et al. 2003. Blood 101:3021-3028). In brief, intact livers were homogenized in 25 mM HEPES-0.15 M NaCl buffer, pH 7.45, supplemented with 0.1% Triton X-100 and standard protease inhibitors. […]

[2] = target: B1; test: co-immunoprecipitation from mouse whole-liver lysates, immunoblot detection
Description: as §1, §2

[3] = target: human IQGAP1 (full-length cDNA, transiently expressed in COS1 cells) (human, UniProt P46940 2-1657); test: reciprocal co-immunoprecipitation from lysates of transiently transfected COS1 cells, immunoblot detection
Description: as §1, §2

Chain of IQGAP1 (mouse, endogenous, liver lysate) (Q9JKF1 2-1657 limits assumed): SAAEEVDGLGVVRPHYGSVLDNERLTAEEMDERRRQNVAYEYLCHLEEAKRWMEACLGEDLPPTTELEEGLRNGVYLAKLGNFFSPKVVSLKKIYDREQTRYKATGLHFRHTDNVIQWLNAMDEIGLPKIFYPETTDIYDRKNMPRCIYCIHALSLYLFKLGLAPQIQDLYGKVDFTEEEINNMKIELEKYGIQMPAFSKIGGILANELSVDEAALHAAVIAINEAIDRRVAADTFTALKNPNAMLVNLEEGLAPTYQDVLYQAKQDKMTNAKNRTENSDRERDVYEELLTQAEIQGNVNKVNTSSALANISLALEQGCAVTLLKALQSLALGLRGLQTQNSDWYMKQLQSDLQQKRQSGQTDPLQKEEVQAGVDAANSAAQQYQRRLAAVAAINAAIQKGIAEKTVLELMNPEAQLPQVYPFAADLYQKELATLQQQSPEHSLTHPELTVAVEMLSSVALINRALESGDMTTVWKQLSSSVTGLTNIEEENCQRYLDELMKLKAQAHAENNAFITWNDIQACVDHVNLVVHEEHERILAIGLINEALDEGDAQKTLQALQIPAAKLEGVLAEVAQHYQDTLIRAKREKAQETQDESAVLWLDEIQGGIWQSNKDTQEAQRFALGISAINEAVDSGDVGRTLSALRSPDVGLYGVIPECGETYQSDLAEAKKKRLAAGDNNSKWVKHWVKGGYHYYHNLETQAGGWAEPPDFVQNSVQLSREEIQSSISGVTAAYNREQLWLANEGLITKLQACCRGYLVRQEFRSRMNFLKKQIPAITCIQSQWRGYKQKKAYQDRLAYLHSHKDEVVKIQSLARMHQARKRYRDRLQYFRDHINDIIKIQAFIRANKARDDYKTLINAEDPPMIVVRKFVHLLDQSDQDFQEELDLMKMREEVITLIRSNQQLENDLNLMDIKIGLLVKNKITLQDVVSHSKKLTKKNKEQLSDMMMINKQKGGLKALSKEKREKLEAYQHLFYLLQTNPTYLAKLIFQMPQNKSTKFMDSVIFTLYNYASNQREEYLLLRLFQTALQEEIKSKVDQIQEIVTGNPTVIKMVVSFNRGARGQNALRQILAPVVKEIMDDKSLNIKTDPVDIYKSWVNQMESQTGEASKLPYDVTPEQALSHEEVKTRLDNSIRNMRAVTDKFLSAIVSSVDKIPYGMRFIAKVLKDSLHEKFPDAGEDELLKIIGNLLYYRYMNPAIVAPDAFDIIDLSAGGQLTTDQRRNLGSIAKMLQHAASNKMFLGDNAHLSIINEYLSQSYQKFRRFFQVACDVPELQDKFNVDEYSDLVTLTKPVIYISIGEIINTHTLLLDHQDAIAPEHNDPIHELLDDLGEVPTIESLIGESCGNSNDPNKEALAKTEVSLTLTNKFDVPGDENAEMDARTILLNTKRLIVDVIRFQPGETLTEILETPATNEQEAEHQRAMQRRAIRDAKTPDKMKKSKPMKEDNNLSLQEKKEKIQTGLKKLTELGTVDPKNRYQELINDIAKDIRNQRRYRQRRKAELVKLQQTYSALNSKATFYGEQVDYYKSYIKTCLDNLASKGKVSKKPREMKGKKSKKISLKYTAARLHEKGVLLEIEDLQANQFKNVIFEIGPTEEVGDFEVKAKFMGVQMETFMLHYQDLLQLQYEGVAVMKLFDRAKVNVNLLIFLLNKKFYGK
Chain of human IQGAP1 (full-length cDNA, transiently expressed in COS1 cells) (P46940 2-1657 limits assumed): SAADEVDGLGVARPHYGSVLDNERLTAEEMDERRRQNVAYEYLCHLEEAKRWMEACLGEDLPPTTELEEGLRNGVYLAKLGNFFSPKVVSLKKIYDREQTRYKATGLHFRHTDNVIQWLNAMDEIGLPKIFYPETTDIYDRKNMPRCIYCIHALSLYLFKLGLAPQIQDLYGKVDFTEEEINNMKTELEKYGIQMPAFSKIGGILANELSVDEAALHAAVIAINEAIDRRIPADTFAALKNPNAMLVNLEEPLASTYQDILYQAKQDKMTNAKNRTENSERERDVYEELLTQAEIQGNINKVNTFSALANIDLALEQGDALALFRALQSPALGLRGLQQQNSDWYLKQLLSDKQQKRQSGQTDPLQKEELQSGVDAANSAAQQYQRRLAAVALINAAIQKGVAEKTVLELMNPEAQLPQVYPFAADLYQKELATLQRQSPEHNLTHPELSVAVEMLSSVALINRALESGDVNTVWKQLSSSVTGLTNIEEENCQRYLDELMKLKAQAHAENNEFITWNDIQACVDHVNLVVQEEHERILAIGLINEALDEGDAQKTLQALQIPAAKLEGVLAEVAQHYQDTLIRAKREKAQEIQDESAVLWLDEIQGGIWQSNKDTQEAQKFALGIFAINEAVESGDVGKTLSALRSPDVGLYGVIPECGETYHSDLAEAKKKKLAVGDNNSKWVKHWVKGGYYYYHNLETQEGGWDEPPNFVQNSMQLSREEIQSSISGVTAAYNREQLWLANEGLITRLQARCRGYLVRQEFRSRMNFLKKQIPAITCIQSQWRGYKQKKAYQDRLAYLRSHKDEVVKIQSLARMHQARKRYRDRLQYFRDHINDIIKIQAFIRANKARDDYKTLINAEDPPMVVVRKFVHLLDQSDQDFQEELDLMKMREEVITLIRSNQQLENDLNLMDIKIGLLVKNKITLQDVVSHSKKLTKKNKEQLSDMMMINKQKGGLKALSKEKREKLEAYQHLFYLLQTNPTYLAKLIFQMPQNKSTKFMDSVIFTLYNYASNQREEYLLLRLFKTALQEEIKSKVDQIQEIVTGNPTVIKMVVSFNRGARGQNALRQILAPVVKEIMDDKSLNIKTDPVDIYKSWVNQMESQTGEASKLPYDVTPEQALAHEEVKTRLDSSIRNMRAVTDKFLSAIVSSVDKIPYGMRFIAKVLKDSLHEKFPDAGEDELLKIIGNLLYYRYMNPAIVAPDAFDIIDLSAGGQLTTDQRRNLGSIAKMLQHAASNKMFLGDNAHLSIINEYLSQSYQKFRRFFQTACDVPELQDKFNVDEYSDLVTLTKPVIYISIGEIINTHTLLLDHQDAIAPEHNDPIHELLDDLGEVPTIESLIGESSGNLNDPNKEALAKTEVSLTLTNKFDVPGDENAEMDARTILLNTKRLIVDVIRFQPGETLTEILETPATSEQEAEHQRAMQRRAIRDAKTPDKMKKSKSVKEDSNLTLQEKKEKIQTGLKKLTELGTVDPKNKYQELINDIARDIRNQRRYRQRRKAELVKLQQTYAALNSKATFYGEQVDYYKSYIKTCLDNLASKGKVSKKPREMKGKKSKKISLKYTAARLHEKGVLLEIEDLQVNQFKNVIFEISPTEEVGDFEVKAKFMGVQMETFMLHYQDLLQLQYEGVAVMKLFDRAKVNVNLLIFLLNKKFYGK

Binder: B1
binding result [1]: no binding

binding result [2]: no binding
B2: E-cadherin (mouse, endogenous, liver lysate) (other, UniProt P09803 157-884, looked up)
chain: DWVIPPISCPENEKGEFPKNLVQIKSNRDKETKVFYSITGQGADKPPVGVFIIERETGWLKVTQPLDREAIAKYILYSHAVSSNGEAVEDPMEIVITVTDQNDNRPEFTQEVFEGSVAEGAVPGTSVMKVSATDADDDVNTYNAAIAYTIVSQDPELPHKNMFTVNRDTGVISVLTSGLDRESYPTYTLVVQAADLQGEGLSTTAKAVITVKDINDNAPVFNPSTYQGQVPENEVNARIATLKVTDDDAPNTPAWKAVYTVVNDPDQQFVVVTDPTTNDGILKTAKGLDFEAKQQYILHVRVENEEPFEGSLVPSTATVTVDVVDVNEAPIFMPAERRVEVPEDFGVGQEITSYTAREPDTFMDQKITYRIWRDTANWLEINPETGAIFTRAEMDREDAEHVKNSTYVALIIATDDGSPIATGTGTLLLVLLDVNDNAPIPEPRNMQFCQRNPQPHIITILDPDLPPNTSPFTAELTHGASVNWTIEYNDAAQESLILQPRKDLEIGEYKIHLKLADNQNKDQVTTLDVHVCDCEGTVNNCMKAGIVAAGLQVPAILGILGGILALLILILLLLLFLRRRTVVKEPLLPPDDDTRDNVYYYDEEGGGEEDQDFDLSQLHRGLDARPEVTRNDVAPTLMSVPQYRPRPANPDEIGNFIDENLKAADSDPTAPPYDSLLVFDYEGSGSEAASLSSLNSSESDQDQDYDYLNEWGNRFKKLADMYGGGEDD

binding result [3]: no binding
B3: human IQGAP2 (cDNA, transiently expressed in COS1 cells) (other, UniProt Q13576 1-1575, looked up)
chain: MPHEELPSLQRPRYGSIVDDERLSAEEMDERRRQNIAYEYLCHLEEAKRWMEVCLVEELPPTTELEEGLRNGVYLAKLAKFFAPKMVSEKKIYDVEQTRYKKSGLHFRHTDNTVQWLRAMESIGLPKIFYPETTDVYDRKNIPRMIYCIHALSLYLFKLGIAPQIQDLLGKVDFTEEEISNMRKELEKYGIQMPSFSKIGGILANELSVDEAALHAAVIAINEAVEKGIAEQTVVTLRNPNAVLTLVDDNLAPEYQKELWDAKKKKEENARLKNSCISEEERDAYEELLTQAEIQGNINKVNRQAAVDHINAVIPEGDPENTLLALKKPEAQLPAVYPFAAAMYQNELFNLQKQNTMNYLAHEELLIAVEMLSAVALLNQALESNDLVSVQNQLRSPAIGLNNLDKAYVERYANTLLSVKLEVLSQGQDNLSWNEIQNCIDMVNAQIQEENDRVVAVGYINEAIDEGNPLRTLETLLLPTANISDVDPAHAQHYQDVLYHAKSQKLGDSESVSKVLWLDEIQQAVDDANVDKDRAKQWVTLVVDVNQCLEGKKSSDILSVLKSSTSNANDIIPECADKYYDALVKAKELKSERVSSDGSWLKLNLHKKYDYYYNTDSKESSWVTPESCLYKESWLTGKEIEDIIEEVTVGYIRENIWSASEELLLRFQATSSGPILREEFEARKSFLHEQEENVVKIQAFWKGYKQRKEYMHRRQTFIDNTDSIVKIQSWFRMATARKSYLSRLQYFRDHNNEIVKIQSLLRANKARDDYKTLVGSENPPLTVIRKFVYLLDQSDLDFQEELEVARLREEVVTKIRANQQLEKDLNLMDIKIGLLVKNRITLEDVISHSKKLNKKKGGEMEILNNTDNQGIKSLSKERRKTLETYQQLFYLLQTNPLYLAKLIFQMPQNKSTKFMDTVIFTLYNYASNQREEYLLLKLFKTALEEEIKSKVDQVQDIVTGNPTVIKMVVSFNRGARGQNTLRQLLAPVVKEIIDDKSLIINTNPVEVYKAWVNQLETQTGEASKLPYDVTTEQALTYPEVKNKLEASIENLRRVTDKVLNSIISSLDLLPYGLRYIAKVLKNSIHEKFPDATEDELLKIVGNLLYYRYMNPAIVAPDGFDIIDMTAGGQINSDQRRNLGSVAKVLQHAASNKLFEGENEHLSSMNNYLSETYQEFRKYFKEACNVPEPEEKFNMDKYTDLVTVSKPVIYISIEEIISTHSLLLEHQDAIAPEKNDLLSELLGSLGEVPTVESFLGEGAVDPNDPNKANTLSQLSKTEISLVLTSKYDIEDGEAIDSRSLMIKTKKLIIDVIRNQPGNTLTEILETPATAQQEVDHATDMVSRAMIDSRTPEEMKHSQSMIEDAQLPLEQKKRKIQRNLRTLEQTGHVSSENKYQDILNEIAKDIRNQRIYRKLRKAELAKLQQTLNALNKKAAFYEEQINYYDTYIKTCLDNLKRKNTRRSIKLDGKGEPKGAKRAKPVKYTAAKLHEKGVLLDIDDLQTNQFKNVTFDIIATEDVGIFDVRSKFLGVEMEKVQLNIQDLLQMQYEGVAVMKMFDKVKVNVNLLIYLLNKKFYGK
